From patent US20250064929A1 (UPSTREAM BIO, published 2025)

Experiments:
[1] = molecular target: T1, human TSLP receptor (TSLP-R) (human, UniProt Q9HC73 23-371); assay: cell-based or functional assay
T1 sequence (looked up): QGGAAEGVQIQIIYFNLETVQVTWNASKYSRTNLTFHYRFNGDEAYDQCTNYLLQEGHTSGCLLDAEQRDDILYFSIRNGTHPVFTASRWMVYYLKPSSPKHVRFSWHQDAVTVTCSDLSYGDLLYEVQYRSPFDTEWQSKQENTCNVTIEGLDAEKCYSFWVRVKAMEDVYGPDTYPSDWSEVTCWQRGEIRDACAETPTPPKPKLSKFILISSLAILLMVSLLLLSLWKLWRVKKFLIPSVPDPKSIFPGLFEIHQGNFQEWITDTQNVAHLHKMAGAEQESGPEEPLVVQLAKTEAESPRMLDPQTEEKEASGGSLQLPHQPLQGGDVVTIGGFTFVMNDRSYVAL

[2] = molecular target: T1, human TSLP receptor (TSLP-R); assay: cell-based or functional assay; remark: listed apart in the source

B1: TRAB-1 antibody (anti-TSLP-R antibody) (antibody, human IgG1, kappa, V domains shown)
VH: EVQLLESGGGLVQPGGSLRLSCAASGFTFRSSAMHWVRQAPGKGLKWVSSVSGSGAGTYYADSVKGRFTISRDNPKNTLYLQMNSLRAEDTAVYYCVKEGGSRGFDYWGQGTLVTVSS
VL: DIQMTQSPSSLSASVGDRVTITCRASQDISNYLAWFQQKPGKAPKSLIYTASSLQSGVPSKFSGSGSGTDFTLTISSLQPEDFATYYCQQYNLYPPTFGQGTKVEIKR
IC50 (ng/mL), CCL17 production in dendritic cells [1]: 16.1 ng/mL | IC50 (ng/mL), cell proliferation of Ba/F3 cells transfected with human TSLP-R/IL-7Rα [2]: 90.7 ng/mL
